According to article PMC8567228 (EMBO Reports, 2021):
Changes are numbered by the printed parent chain. Numbers in names are those of the source.

Assays:
[1] = molecular target: Rab8a phosphorylated at Thr72 (pRab8a) (human) (UniProt P61006)
[2] = molecular target: T1, pThr72-Rab8a switch 2 phosphopeptide (residues 65-79) (human)
T1 sequence (peptide, phosphothreonine (T*) at Thr72): AGQERFRTITTAYYR

[3] = molecular target: T2, pThr73-Rab10 switch 2 phosphopeptide (human)
T2 sequence (peptide, phosphothreonine (T*) at Thr73): AGQERFHTITTSYYR

[4] = molecular target: the molecule itself; assay: crystal structure; vapour diffusion crystals, space group P212121, two molecules of PPM1H in the asymmetric unit; with Mg2+ (7kpr, 7l4j, 7l4i) or Mn2+ (7n0z)
[5] = molecular target: the molecule itself; assay: SEC-MALS; His6-tagged proteins injected at 2 mg/ml (100 μl) into a Superdex 200 column; DAWN Heleos and Optilab TrEX detectors
[6] = molecular target: T3, Rab8a phosphorylated at Thr72 (pRab8a) (human), P61006; assay: cross-linking; DSBU 9.375 mM, 10 min at RT; 35 µM Rab8a and 28 µM PPM1H pre-incubated 1 h at 30°C in 40 mM HEPES pH 7.5, 150 mM NaCl, 2 mM MgCl2; SDS-PAGE, bands digested and read by LC MS/MS
T3 chain: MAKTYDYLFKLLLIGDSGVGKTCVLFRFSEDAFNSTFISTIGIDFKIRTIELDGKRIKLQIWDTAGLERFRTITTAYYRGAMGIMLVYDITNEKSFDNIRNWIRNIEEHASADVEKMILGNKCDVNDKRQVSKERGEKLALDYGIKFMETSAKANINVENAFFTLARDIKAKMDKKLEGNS

B1: His6-SUMO-PPM1H[K88A], full length (enzyme)
chain: MLTRVKSAVANFMGGIMAGSSGSEHGGGSCGGSDLPLRFPYGRPEFLGLSQDEVECSADHIARPILILKETRRLPWATGYAEVINAGASTHNEDQASCEVLTVKKKAGAVTSTPNRNSSKRRSSLPNGEGLQLKENSESEGVSCHYWSLFDGHAGSGAAVVASRLLQHHITEQLQDIVDILKNSAVLPPTCLGEEPENTPANSRTLTRAASLRGGVGAPGSPSTPPTRFFTEKKIPHECLVIGALESAFKEMDLQIERERSSYNISGGCTALIVICLLGKLYVANAGDSRAIIIRNGEIIPMSSEFTPETERQRLQYLAFMQPHLLGNEFTHLEFPRRVQRKELGKKMLYRDFNMTGWAYKTIEDEDLKFPLIYGEGKKARVMATIGVTRGLGDHDLKVHDSNIYIKPFLSSAPEVRIYDLSKYDHGSDDVLILATDGLWDVLSNEEVAEAITQFLPNCDPDDPHRYTLAAQDLVMRARGVLKDRGWRISNDRLGSGDDISVYVIPLIHGNKLS
[1]
  initial rate of phosphate release (malachite green time course), 16 μM pThr72-Rab8a protein (GTPγS), against wild-type PPM1H (fold reduction): > 20
[2]
  initial rate of phosphate release (malachite green time course), 32 μM pThr72-Rab8a peptide, against wild-type PPM1H (fold reduction): > 20
[3]
  initial rate of phosphate release (malachite green time course), 32 μM pThr73-Rab10 peptide, against wild-type PPM1H (fold reduction): > 20

B2: His6-SUMO-PPM1H[R338A], full length (enzyme)
chain: B1 chain with A88K, R338A
[1]
  initial activity of phosphate release (malachite green time course), 16 μM pThr72-Rab8a protein (GTPγS), against wild-type PPM1H (fold reduction): 2

B3: PPM1H^DA-LD (residues 33-514, D288A, loop 188-226 replaced by GSGS, C56A), crystallised form (enzyme, human)
chain: SDLPLRFPYGRPEFLGLSQDEVEASADHIARPILILKETRRLPWATGYAEVINAGKSTHNEDQASCEVLTVKKKAGAVTSTPNRNSSKRRSSLPNGEGLQLKENSESEGVSCHYWSLFDGHAGSGAAVVASRLLQHHITEQLQDIVDILKNSAVLGSGSTRFFTEKKIPHECLVIGALESAFKEMDLQIERERSSYNISGGCTALIVICLLGKLYVANAGASRAIIIRNGEIIPMSSEFTPETERQRLQYLAFMQPHLLGNEFTHLEFPRRVQRKELGKKMLYRDFNMTGWAYKTIEDEDLKFPLIYGEGKKARVMATIGVTRGLGDHDLKVHDSNIYIKPFLSSAPEVRIYDLSKYDHGSDDVLILATDGLWDVLSNEEVAEAITQFLPNCDPDDPHRYTLAAQDLVMRARGVLKDRGWRISNDRLGSGDDISVYVIPLIHGNKLS
notes: PPM1H phosphatase, human, residues 33-187 with C56A; short linker that replaces the loop 188-226; PPM1H phosphatase, human, residues 227-514 with D288A; also called pET28a(+)-PPM1H^D288A LoopDEL; source: E. coli, purified (nickel agarose, TEV cleavage, second Ni column, Superdex 200); not shown: His6, N-terminal, cleaved
[4]
  binding result: binds

B4: His6-tagged PPM1H^WT-LD (residues 33-514, loop 188-226 replaced by GSGS, C56A) (enzyme, human)
chain: B3 chain with A221D
notes: PPM1H phosphatase, human, residues 33-187 with C56A; short linker that replaces the loop 188-226; PPM1H phosphatase, human, residues 227-514; Same construct as m2 but with the His6 tag kept for SEC-MALS (calculated about 52.1 kDa); source: E. coli, purified (Ni-agarose, Superdex 200); not shown: His6, N-terminal, kept
[5]
  stoichiometry N: 2

B5: Recombinant PPM1H[D288A] used for DSBU cross-linking, Q9ULR3 1-514 (enzyme)
chain: SDLPLRFPYGRPEFLGLSQDEVECSADHIARPILILKETRRLPWATGYAEVINAGKSTHNEDQASCEVLTVKKKAGAVTSTPNRNSSKRRSSLPNGEGLQLKENSESEGVSCHYWSLFDGHAGSGAAVVASRLLQHHITEQLQDIVDILKNSAVLPPTCLGEEPENTPANSRTLTRAASLRGGVGAPGSPSTPPTRFFTEKKIPHECLVIGALESAFKEMDLQIERERSSYNISGGCTALIVICLLGKLYVANAGASRAIIIRNGEIIPMSSEFTPETERQRLQYLAFMQPHLLGNEFTHLEFPRRVQRKELGKKMLYRDFNMTGWAYKTIEDEDLKFPLIYGEGKKARVMATIGVTRGLGDHDLKVHDSNIYIKPFLSSAPEVRIYDLSKYDHGSDDVLILATDGLWDVLSNEEVAEAITQFLPNCDPDDPHRYTLAAQDLVMRARGVLKDRGWRISNDRLGSGDDISVYVIPLIHGNKLS
modifications: not checked
[6]
  stoichiometry N (PPM1H per pRab8a (2:2)): 1

B6: PPM1H^DA (residues 33-514, D288A), crystallised form (enzyme, human, UniProt Q9ULR3 33-514, looked up)
chain: B5 chain
notes: PPM1H phosphatase, human, residues 33-514 with D288A (substrate-trapping mutant); Two molecules in the asymmetric unit; two Mg2+ ions at the active site; also called pNIC28-Bsa4-PPM1H^33-514 D288A; source: E. coli, purified (nickel agarose, TEV cleavage, second Ni column, Superdex 200)
[4]
  binding result: binds
